These results are taken from patent US20040253587A1.

Several values for one entry are separate records, joined by “and”; a condition that tells them apart may be missing. Equal entries are not always repeated.

This experiment addresses IL-15 receptor complex on CTLL-2 cells. The experiment is described as follows: cell-based or functional assay.
The substance “IL-15 (from UniProt P40933 49-162) (ligand)” returned a CTLL Inhibition Assay units/ml (Antagonist Activity) of 279 units/ml.

For “IL-15-D56C (from UniProt P40933 49-162) (ligand)”, the CTLL Inhibition Assay units/ml (Antagonist Activity) was 2e+06 units/ml and 5e+06 units/ml.

“IL-15-D56C-Q156C (from UniProt P40933 49-162) (ligand)” registered a CTLL Inhibition Assay units/ml (Antagonist Activity) of 200000 units/ml.

In turn, “IL-15-D56C-Q156S (from UniProt P40933 49-162) (ligand)” returned a CTLL Inhibition Assay units/ml (Antagonist Activity) of 700000 units/ml.

With “IL-15-D56S (from UniProt P40933 49-162) (ligand)”, the CTLL Inhibition Assay units/ml (Antagonist Activity) came to 220000 units/ml.

As to “IL-15-D56S-Q156S (from UniProt P40933 49-162) (ligand)”, the CTLL Inhibition Assay units/ml (Antagonist Activity) is 720000 units/ml.

For the substance “IL-15-Q156C (from UniProt P40933 49-162) (ligand)”, the CTLL Inhibition Assay units/ml (Antagonist Activity) amounted to 3e+06 units/ml.

As to “IL-15-Q156S (from UniProt P40933 49-162) (ligand)”, the CTLL Inhibition Assay units/ml (Antagonist Activity) came out at 1.5e+06 units/ml.

“PEG-IL-15-D56C (from UniProt P40933 49-162) (ligand)” had a CTLL Inhibition Assay units/ml (Antagonist Activity) of 7.96e+06 units/ml and a concentration of antagonist required to neutralize 40 pg/ml IL-15 in CTLL inhibition assay of 7.7 ng/mL.
